From patent US12522635B2, “Amyloid peptide variants” (Loyola Marymount University, priority 2019, dated 2026)
Where a SMILES comes first, the peptide text is derived from it. Bridges are numbered along the chain shown (N, C = ends). Where no end group is shown, it is not given here.

How the values were obtained:
human IAPP (hIAPP) [1] = target: T1, human IAPP (hIAPP) (Homo sapiens, UniProt P10997); experiment: Thioflavin T binding assay of hIAPP aggregation when mixed with IAPP peptides; type: biochemical; conditions: for inhibition of hIAPP aggregation, thioflavin T binding: hIAPP mixed with peptide, incubated at 37° C. with shaking; for inhibition of hIAPP aggregation (summary statement): peptide mixed with hIAPP, no single assay (thioflavin T and AFM)
T1 construct: This 37 amino acid polypeptide is co-secreted from pancreatic β-islet cells with insulin
T1 sequence (P10997 34-70 limits assumed): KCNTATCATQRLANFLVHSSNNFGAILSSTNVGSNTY
Excerpt: Any of a number of assays known to the art can be used to evaluate the ability of IAPP peptides to inhibit hIAPP aggregation and/or protect cells from hIAPP toxicity. Thioflavin T (ThT) binding is one such technique for identifying amyloid formation in real time. Human IAPP is known to bind thioflavin T during aggregation and amyloid formation, and upon binding to amyloid fibrils ThT will give a strong fluorescence signal at approximately 482 nm when excited at 450 nm. ThT fluorescence correlates linearly with amyloid concentration in a sample and therefore can be used to determine the amount of aggregation in a sample. This technique can therefore be used for identifying substances with amyloid-inhibiting potential when such substances are mixed with human IAPP under conditions known to result in the formation of aggregates by hIAPP. Determining the extent of aggregation can also be determined using other techniques, such as Atomic Force Microscopy (AFM), which can provide information about particle dimensions, shape, and substructure with nanometer resolution. In the foregoing assays and others that can be used by one of skill in the art, significant inhibition can be determined using a t-test by measuring the difference between hIAPP and hIAPP combined with an IAPP peptide.
To identify IAPP peptides having inhibitory potential against hIAPP aggregation, the peptides shown in FIG. 1 from a number of species (cow, degu, guinea pig, horse, pig, rat, and sheep[…]) were mixed with hIAPP at a 2:1 molar ratio of animal peptide to hIAPP and incubated under conditions known to promote hIAPP aggregation and fibril formation. IAPP alone, or hIAPP mixed with an animal IAPP, was pipetted into a glass tube and the HFIP was removed under speed-vacuum. The resulting peptide sample was dissolved in 20 mM Tris buffer pH 7.4.
37 μM human IAPP was mixed with 75 μM of each indicated animal IAPP. Aggregation was initiated by incubating samples at 37° C. with shaking at 200 rpm for 40 minutes. At indicated time points, a 17 μL aliquot of each sample was mixed with 663 μL of 50.0 μM thioflavin T in 20 mM Tris buffer (pH 7.4). Thioflavin T fluorescence emission was then recorded at 488 nm using a Hitachi F-7000 fluorescence spectrophotometer.
After 40 minutes, these samples were monitored for their ability to bind thioflavin T (see FIG. 2) and their ability to form fibrils as identified with atomic force microscopy.
Human IAPP (37 μM) was mixed with each of the indicated Weddell seal variants (at 75 μM) and incubated for 30 minutes at 37° C. with shaking at 200 rpm. The Weddell seal IAPP peptides were likewise subjected to atomic force microscopy as described in Example 2.
Human IAPP was mixed with each of the indicated raccoon variants and incubated at 37° C. with shaking.
Human IAPP was mixed with each of the indicated chicken variants and incubated at 37° C. with shaking. […] However, it was able to protect cells in MTT assays, so it is believed to inhibit formation of toxic oligomers while having a lesser effect on inhibiting the formation of fibers (which are less toxic and less able to bind ThT).
Human IAPP was mixed with each of the indicated chicken variants and incubated at 37° C. with shaking.

human IAPP (hIAPP) [2] = target: T1, human IAPP (hIAPP); experiment: Atomic force microscopy (AFM) of hIAPP fibril formation when mixed with IAPP peptides; type: biochemical; conditions: for inhibition of hIAPP fibril formation, AFM: 37 μM hIAPP and 75 μM peptide, 37° C. with shaking for 40 minutes
Experimental: Samples labeled with hIAPP contained 40 μM hIAPP. The sample with pramlintide and hIAPP contained a 2:1 molar mixture (80 μM Pramlintide mixed with 40 μM hIAPP). The samples with raccoon IAPP and Pramlintide alone contained 40 μM of the indicated peptides. Each sample was incubated for 40 minutes at 37° C. with shaking; conditions known to promote hIAPP amyloid formation. All scans show raw data with no flattening and are […].
Each sample contained 37 μM hIAPP and 75 μM of the indicated peptide. Samples were incubated at 37° C. with shaking for 40 minutes. All scans show raw data with no flattening and are […].
Each sample contained 37 μM hIAPP mixed with 37 μM of the indicated peptide. Samples were incubated at 37° C. with shaking for 30 minutes before depositing each sample onto freshly cleaved mica.
Samples of hIAPP with or without animal IAPP were prepared as described in Example 1 and were then incubated with shaking at 37° C. for 40 minutes. After this incubation, 17 μL of each sample was deposited onto freshly cleaved mica. Samples were incubated for 5 minutes at room temperature before washing with 200 μL sterile water. After drying, the samples were scanned using an MFP-3D atomic force microscope (Asylum Research) set on A/C mode and a 240 m silicon cantilever (Olympus).
Many of the animal IAPP variants are known to likewise form fibrils and yield amyloid-plaques when scanned via AFM. […] This is in spite of the fact that all of these IAPP peptides (except polar bear IAPP) are known to aggregate and form fibrils themselves under these or similar conditions

RIN-m cells = experiment: MTT viability assay, peptide alone or mixed with hIAPP; type: cell-based; conditions: for rescue / protection of cells from hIAPP toxicity (words): hIAPP mixed with peptide 1:1, MTT assay; for toxicity of peptide to cells: peptide alone, MTT assay, pancreatic (RIN-m) cells
Excerpt: Cytoprotection can likewise be measured by a number of assays known to the art. One such assay is the MTT assay, which is a colorimetric assay for assessing cell metabolic activity. NAD(P)H-dependent cellular oxidoreductase enzymes in the cytosolic compartment of a cell reduces the tetrazolium dye MTT 3-(4,5-dimethylthiazol-2-yl)-2,5-diphenyltetrazolium bromide to an insoluble form, formazan, which has a purple color. The reduction of MTT (and other tetrazolium dyes) depends on the cellular metabolic activity, so a loss of color in the course of performing an MTT assay indicates low metabolic activity, and is thus an indicator of cell damage and death.
To test cell viability, a MTT colorimetric assay measuring the conversion of yellow tetrazolium salt into purple formazan crystal catalyzed by a mitochondrial reductase was used. Cell viability studies were performed using RIN-m cells (ATCC, CRL-2057). An equal number of RIN-m cells were plated in triplicate and incubated overnight in 96-well plates. The next day, fresh RPMI-1640 with phenol red supplemented with 10% FBS was added to cells. Hexafluoroisopropanol (HFIP) was removed from each individual human and animal IAPP using a centrivap concentrator (LabOnco). All IAPP peptide samples were re-suspended in RPMI-1640 with 10% FBS. To ensure even re-suspension, each resulting IAPP-containing vial was scraped with a pipette tip six times and vortexed (Vortex Genie Mixer) for 15 seconds. The whole process, from drying each IAPP peptide to adding each IAPP peptide to the cells was uniform to ensure that each sample was incubated for an equal amount of time with each IAPP peptide. IAPP peptides were added to cells and incubated for 46 hours at 37° C. Post-incubation, the media in each well was replaced by fresh DMEM/F-12 without phenol red. MTT (3-(4,5-dimethyl-2-thiazolyl)-2,5-diphenyl-tetrazolium bromide) was added into each well and incubated at 37° C. for 2 hours. Formazan crystals, formed on the bottom of the wells, were re-suspended in solubilization buffer (20% SDS and 50% dimethylformamide). The absorbance in each well was taken at 570 nm using a Multiskan FC Microplate Photometer (Thermos Fisher Scientific). Media were obtained from ATCC. All incubations took place in a water jacketed incubator in 5% carbon dioxide at 37° C. (Shell Lab).
The MTT viability assay was used to measure cell viability of RIN-m cells upon addition of hIAPP alone, the addition of each animal IAPP peptide alone, and hIAPP mixed with each animal IAPP peptide (results shown in FIG. 5). RIN-m cells alone were used as a control and set to 100% cell viability. […] Addition of raccoon IAPP to hIAPP increased the cell viability from 55% to an average of 72% (p=0.005705). Addition of chicken IAPP variant to hIAPP increased cell viability to an average of 76% (p=0.013556).

Compound	inhibition of hIAPP aggregation, thioflavin T binding (human IAPP (hIAPP) [1])	inhibition of hIAPP fibril formation, AFM (human IAPP (hIAPP) [2])	rescue / protection of cells from hIAPP toxicity (words) (RIN-m cells)	inhibition of hIAPP fiber formation (human IAPP (hIAPP) [2]; FIG. 22: 37 μM hIAPP mixed with 37 μM peptide, 37° C. with shaking for 30 minutes)	rescue / protection of cells from hIAPP toxicity (words) (RIN-m cells; listed as Ch-122L)	toxicity of peptide to cells (RIN-m cells)	inhibition of hIAPP aggregation (summary statement) (human IAPP (hIAPP) [1])
KCNTATCATQRLANFLVRSSNNLGAILSSTNVGSNTY (Leptonychotes weddellii mutation) [WS_RL]	inhibited hIAPP aggregation	strong inhibitors of hIAPP fiber formation	rescued cells from hIAPP toxicity	–	–	–	–
KCNTATCVTQRLADFLVRSSSNLGAIYSPTNVGSNTY (Gallus gallus mutation) [Ch_I22L]	inhibited hIAPP aggregation	–	rescued cells from hIAPP-induced cytotoxicity	able to inhibit hIAPP fiber formation	rescue cells from hIAPP toxicity	minimal inherent toxicity	–
rat IAPP: naturally occurring IAPP peptide of rat origin (FIG. 1)	–	either had no effect on hIAPP fibril formation or appeared to promote fibrils with hIAPP	not capable of protecting RIN-m cells from the toxic effects of hIAPP	–	–	improved effect on cell viability	failed to inhibit the aggregation of human IAPP
KCNTATCATQRLANFLVHSSNNLGAILSPTNVGSNTY (KTATCATQRLANFLVHSSNNLGAILSPTNVGSNTY; Leptonychotes weddellii mutation) [WS_LP]	inhibited hIAPP aggregation	strong inhibitors of hIAPP fiber formation	–	–	–	toxic to cells, with and without addition of hIAPP	–
CC[C@H](C)[C@H](NC(=O)[C@H](C)NC(=O)CNC(=O)[C@H](CC(C)C)NC(=O)[C@H](CC(N)=O)NC(=O)[C@H](CC(N)=O)NC(=O)[C@H](CO)NC(=O)[C@H](CO)NC(=O)[C@H](CCCNC(=N)N)NC(=O)[C@@H](NC(=O)[C@H](CC(C)C)NC(=O)[C@H](Cc1ccccc1)NC(=O)[C@H](CC(N)=O)NC(=O)[C@H](C)NC(=O)[C@H](CC(C)C)NC(=O)[C@H](CCCNC(=N)N)NC(=O)[C@H](CCC(N)=O)NC(=O)[C@@H](NC(=O)[C@H](C)NC(=O)[C@@H]1CSSC[C@H](NC(=O)[C@@H](N)CCCCN)C(=O)N[C@@H](CC(N)=O)C(=O)N[C@@H]([C@@H](C)O)C(=O)N[C@@H](C)C(=O)N[C@@H]([C@@H](C)O)C(=O)N1)[C@@H](C)O)[C@@H](C)CC)C(=O)N[C@@H](CC(C)C)C(=O)N[C@@H](CO)C(=O)N1CCC[C@H]1C(=O)N[C@H](C(=O)N[C@@H](CC(N)=O)C(=O)N[C@H](C(=O)NCC(=O)N[C@@H](CO)C(=O)N[C@@H](CC(N)=O)C(=O)N[C@H](C(=O)N[C@@H](Cc1ccc(O)cc1)C(N)=O)[C@@H](C)O)C(C)C)[C@@H](C)O [cat IAPP] (H-KCNTATCATQRLANFLIRSSNNLGAILSPTNVGSNTY-NH2; disulfide 2-7 (inferred); N-terminus and C-terminus assumed)	–	significant ability to prevent fiber formation	–	–	–	–	able to inhibit such aggregation
guinea pig IAPP: naturally occurring IAPP peptide of guinea pig origin (FIG. 1) (KCNTATCATQRLTNFLVRSSHNLGAALLPTDVGSNTY; ends and bridges not checked; cysteine pairing not given here; UniProt P12966 37-73, looked up)	–	either had no effect on hIAPP fibril formation or appeared to promote fibrils with hIAPP	–	–	–	–	failed to inhibit the aggregation of human IAPP
cow IAPP: naturally occurring IAPP peptide of cow origin (FIG. 1) (CGTATCETQRLANFLAPSSNKLGAIFSPTKMGSNTY; ends and bridges not checked; cysteine pairing not given here)	–	either had no effect on hIAPP fibril formation or appeared to promote fibrils with hIAPP	–	–	–	–	failed to inhibit the aggregation of human IAPP
degu IAPP: naturally occurring IAPP peptide of degu origin (FIG. 1) (KCNTATCATQRLTNFLVRSSHNLGAALPPTKVGSNTY; ends and bridges not checked; cysteine pairing not given here; UniProt P22889 37-73, looked up)	–	either had no effect on hIAPP fibril formation or appeared to promote fibrils with hIAPP	–	–	–	–	failed to inhibit the aggregation of human IAPP
